Results from IntAct's records for PubMed 20668449.

B1: Regulator of chromosome condensation (Homo sapiens), P18754 (parent)
chain: MSPKRIAKRRSPPADAIPKSKKVKVSHRSHSTEPGLVLTLGQGDVGQLGLGENVMERKKPALVSIPEDVVQAEAGGMHTVCLSKSGQVYSFGCNDEGALGRDTSVEGSEMVPGKVELQEKVVQVSAGDSHTAALTDDGRVFLWGSFRDNNGVIGLLEPMKKSMVPVQVQLDVPVVKVASGNDHLVMLTADGDLYTLGCGEQGQLGRVPELFANRGGRQGLERLLVPKCVMLKSRGSRGHVRFQDAFCGAYFTFAISHEGHVYGFGLSNYHQLGTPGTESCFIPQNLTSFKNSTKSWVGFSGGQHHTVCMDSEGKAYSLGRAEYGRLGLGEGAEEKSIPTLISRLPAVSSVACGASVGYAVTKDGRVFAWGMGTNYQLGTGQDEDAWSPVEMMGKQLENRVVLSVSSGGQHTVLLVKDKEQS
B2: N-terminal Xaa-Pro-Lys N-methyltransferase 1 (Homo sapiens), Q9BV86 (parent)
chain: MTSEVIEDEKQFYSKAKTYWKQIPPTVDGMLGGYGHISSIDINSSRKFLQRFLREGPNKTGTSCALDCGAGIGRITKRLLLPLFREVDMVDITEDFLVQAKTYLGEEGKRVRNYFCCGLQDFTPEPDSYDVIWIQWVIGHLTDQHLAEFLRRCKGSLRPNGIIVIKDNMAQEGVILDDVDSSVCRDLDVVRRIICSAGLSLLAEERQENLPDEIYHVYSFALR

Variants of: B1
Conditions: with ntm1a_human NTMT1, Q9BV86

| Variant | effect of a mutation on the interaction |
| --- | --- |
| S2D | disrupting interaction strength |
| S2V | decreasing interaction |

Variants of: B1
Conditions: with ntm1a_human NTMT1, Q9BV86
Remark: another data set of the same source

| Variant | effect of a mutation on the interaction |
| --- | --- |
| K4Q | disrupting interaction |

Variants of: B2
Conditions: with rcc1_human RCC1, P18754

| Variant | effect of a mutation on the interaction |
| --- | --- |
| D180K | disrupting interaction |
| N168K | disrupting interaction |
